Data published in patent publication US20130224798A1.

Target: Toll-like Receptor 5 (TLR5) constitutively expressed by HEK293 cells (UniProt O60602)
Assay: cell-based or functional assay

B1: STF2.HA1-1His(PR8), produced in Baculovirus (protein)
chain: AQVINTNSLSLLTQNNLNKSQSALGTAIERLSSGLRINSAKDDAAGQAIANRFTANIKGLTQASRNANDGISIAQTTEGALNEINNNLQRVRELAVQSANSTNSQSDLDSIQAEITQRLNEIDRVSGQTQFNGVKVLAQDNTLTIQVGANDGETIDIDLKQINSQTLGLDSLNVQKAYDVKDTAVTTKAYANNGTTLDVSGLDDAAIKAATGGTNGTASVTGGAVKFDADNNKYFVTIGGFTGADAAKNGDYEVNVATDGTVTLAAGATKTTMPAGATTKTEVQELKDTPAVVSADAKNALIAGGVDATDANGAELVKMSYTDKNGKTIEGGYALKAGDKYYAADYDEATGAIKAKTTSYTAADGTTKTAANQLGGVDGKTEVVTIDGKTYNASKAAGHDFKAQPELAEAAAKTTENPLQKIDAALAQVDALRSDLGAVQNRFNSAITNLGNTVNNLSEARSRIEDSDYATEVSNMSRAQILQQAGTSVLAQANQVPQNVLSLLASGSGSGSSHNGKLCRLKGIAPLQLGKCNIAGWLLGNPECDPLLPVRSWSYIVETPNSENGICYPGDFIDYEELREQLSSVSSFERFEIFPKESSWPNHNTNGVTAACSHEGKSSFYRNLLWLTEKEGSYPKLKNSYVNKKGKEVLVLWGIHHPPNSKEQQNLYQNENAYVSVVTSNYNRRFTPEIAERPKVRDQAGRMNYYWTLLKPGDTIIFEANGNLIAPMYAFALSRGFGSGIITSNASMHECNTKCQTPLGAINSSLPYQNIHPVTIGECPKYVRHHHHHH
  TLR activity (EC50, ng/ml): 3 ng/mL

B2: STF2.HA1-3(PR8), produced in E. coli (protein)
chain: MAQVINTNSLSLLTQNNLNKSQSALGTAIERLSSGLRINSAKDDAAGQAIANRFTANIKGLTQASRNANDGISIAQTTEGALNEINNNLQRVRELAVQSANSTNSQSDLDSIQAEITQRLNEIDRVSGQTQFNGVKVLAQDNTLTIQVGANDGETIDIDLKQINSQTLGLDSLNVQKAYDVKDTAVTTKAYANNGTTLDVSGLDDAAIKAATGGTNGTASVTGGAVKFDADNNKYFVTIGGFTGADAAKNGDYEVNVATDGTVTLAAGATKTTMPAGATTKTEVQELKDTPAVVSADAKNALIAGGVDATDANGAELVKMSYTDKNGKTIEGGYALKAGDKYYAADYDEATGAIKAKTTSYTAADGTTKTAANQLGGVDGKTEVVTIDGKTYNASKAAGHDFKAQPELAEAAAKTTENPLQKIDAALAQVDALRSDLGAVQNRFNSAITNLGNTVNNLSEARSRIEDSDYATEVSNMSRAQILQQAGTSVLAQANQVPQNVLSLLANSENGICYPGDFIDYEELREQLSSVSSFERFEIFPKESSWPNHNTNGVTAACSHEGKSSFYRNLLWLTEKEGSYPKLKNSYVNKKGKEVLVLWGIHHPPNSKEQQNLYQNENAYVSVVTSNYNRRFTPEIAERPKVRDQAGRMNYYWTLLKPGDTIIFEANGNLIAPMYAFALSRG
  TLR5 activity (EC50, ng/ml): 1.2 ng/mL
